# Patent US20060269997A1 (Genentech, published 2006)
# How the values were obtained:
# [1] = molecular target: KDR on human umbilical vein endothelial cells (HUVEC) (human, UniProt P35968 20-1356); experiment: cell-based or functional assay
# [2] = molecular target: T1, Flt-IgG (a chimeric Flt-human Fc molecule) (UniProt P17948 27-758, limits assumed); experiment: competition ELISA vs biotinylated native VEGF, Flt-IgG captured by anti-Fc
# T1 construct: Only described as a chimeric Flt-human Fc molecule; not shown: human Fc
# Protocol: (§1) Receptor binding assays were performed in 96-well immunoplates (Maxisorp, Nunc-Immunoplate, Nalge Nunc International, Rochester, N.Y.). Each well was coated with 100 μl of a solution containing 2 μg/ml of rabbit F(ab′)2 to human IgG Fc (Jackson ImmunoResearch, West Grove, Pa.) in 50 mM carbonate buffer at pH 9.6 and incubated at 4° C. overnight. The supernatant was then discarded, the wells were washed three times in washing buffer (0.05% Tween 20 in PBS), and the plate was blocked (150 μl per well) with block buffer (0.5% BSA, 0.01% thimerosal in PBS) at room temperature for one hour. The supernatant was discarded, and the wells were washed.
# The wells were filled with 100 μl of a solution containing Flt-IgG (a chimeric Flt-human Fc molecule) at 50 ng/ml in assay buffer (0.5% BSA, 0.05% Tween 20 in PBS). The wells were incubated at room temperature for 1 hour and then washed three times in wash buffer (0.05% Tween 20 in PBS).
# (§2) Aliquots of the mixture (100 μl) were added to the precoated microtiter wells and the plate was incubated for 2 hours at room temperature. […] The wells were then incubated with 3,3′, 5,5′-tetramethyl benzidine (0.2 g/liter, Kirkegaard & Perry Laboratories, Gaithersburg, Md.) for about 10 minutes at room temperature. Absorbance was read at 450 nm on a Vmax plate reader (Molecular Devices, Menlo Park, Calif.).
# [3] = molecular target: T2, Flt-1 on Flt-1-transfected NIH3T3 cells (UniProt P17948 27-1338, limits assumed); experiment: competitive displacement of 125I-VEGF (legend: 1-165; Example 7: 1-109) from Flt-1-transfected NIH3T3 cells
# T2 construct: whole, on cells; also called FLT-1 expressing NIH3T3 cells; Flt-1-transfected cells
# Protocol: (§3) KDR or Flt-1 transfected NIH3T3 cells were prepared as described by Fuh et al., J. Biol. Chem., 273:11187-11204 (1998). The transfected cells were maintained in F12 media supplemented with 10% FBS and 400 ug/ml G418 (GibcoBRL). For the binding assays, the cells were plated in 12-wells plates at 1×10⁶/well to reach confluency next day. […] The plates were incubated at 4° C. for three hours and then washed two times with HBS with […].
# [4] = molecular target: KDR receptor (soluble RIA of Examples 6 and 8) (UniProt P35968); experiment: soluble radio-immuno receptor-binding assay (RIA)
# [5] = molecular target: T3, KDR on KDR-transfected NIH3T3 cells (UniProt P35968 20-1356, limits assumed); experiment: competitive displacement of 125I-VEGF (legend: 1-165; Example 7: 1-109) from KDR-transfected NIH3T3 cells
# T3 construct: whole, on cells; also called KDR expressing NIH3T3 cells; KDR-transfected 3T3 cells
# Protocol: as §3
# [6] = molecular target: gD-KDR receptor on CHO cells (UniProt P35968 20-1356); experiment: cell-based or functional assay
# [7] = molecular target: T4, KDR (1-3) monomer (UniProt P35968 20-327, limits assumed, biotin-labeled in the ELISA of Example 8); experiment: competition ELISA vs biotinylated VEGF (8-109), soluble KDR (1-3) captured by MAKD5
# T4 construct: domain: domains 1 to 3; Genentech reagent; also called domains 1 to 3 of KDR
# Protocol: as §1, with “containing 8” for “containing 2”, “of a monoclonal antibody” for “of rabbit F(ab′)2”, “to KDR known as MAKD5 (Genentech, South San Francisco, Calif.)” for “to human IgG Fc (Jackson ImmunoResearch, West Grove, Pa.)”, “was” for “was then”
# as §2, with “of this” for “of the”, “for 1 hour” for “for 2 hours”, “(0.2 gram/liter;” for “(0.2 g/liter,”
# Titration curves were fit with a four-parameter nonlinear regression curve-fitting program (KaleidaGraph, Synergy Software, Reading, Pa.).
# [8] = molecular target: T4, KDR (1-3) monomer; experiment: competition ELISA: plate coated with VEGF (8-109), 100 pM biotin-labeled KDR(1-3), serial dilutions of the competing VEGF (Example 8)
# Protocol: (§4) After 1 hour, the plates were washed, and the bound protein stained with streptavidin horseradish peroxidase conjugate (Pharmacia) and assayed. Affinities were estimated as IC₅₀ values: the concentration of KDR(1-3) or Flt(1-3) that blocked 50% of protein binding.
# [9] = molecular target: T5, Flt-1 (1-3) monomer (UniProt P17948 27-331, limits assumed, biotin-labeled in the ELISA of Example 8); experiment: competition ELISA: plate coated with VEGF (8-109), 100 pM biotin-labeled Flt1(1-3), serial dilutions of the competing VEGF (Example 8)
# T5 construct: domain: domains 1 to 3; Genentech reagent; also called Flt(1-3); domains 1 to 3 of Flt-1
# Protocol: as §4
# Chain of KDR on human umbilical vein endothelial cells (HUVEC) (P35968 20-1356): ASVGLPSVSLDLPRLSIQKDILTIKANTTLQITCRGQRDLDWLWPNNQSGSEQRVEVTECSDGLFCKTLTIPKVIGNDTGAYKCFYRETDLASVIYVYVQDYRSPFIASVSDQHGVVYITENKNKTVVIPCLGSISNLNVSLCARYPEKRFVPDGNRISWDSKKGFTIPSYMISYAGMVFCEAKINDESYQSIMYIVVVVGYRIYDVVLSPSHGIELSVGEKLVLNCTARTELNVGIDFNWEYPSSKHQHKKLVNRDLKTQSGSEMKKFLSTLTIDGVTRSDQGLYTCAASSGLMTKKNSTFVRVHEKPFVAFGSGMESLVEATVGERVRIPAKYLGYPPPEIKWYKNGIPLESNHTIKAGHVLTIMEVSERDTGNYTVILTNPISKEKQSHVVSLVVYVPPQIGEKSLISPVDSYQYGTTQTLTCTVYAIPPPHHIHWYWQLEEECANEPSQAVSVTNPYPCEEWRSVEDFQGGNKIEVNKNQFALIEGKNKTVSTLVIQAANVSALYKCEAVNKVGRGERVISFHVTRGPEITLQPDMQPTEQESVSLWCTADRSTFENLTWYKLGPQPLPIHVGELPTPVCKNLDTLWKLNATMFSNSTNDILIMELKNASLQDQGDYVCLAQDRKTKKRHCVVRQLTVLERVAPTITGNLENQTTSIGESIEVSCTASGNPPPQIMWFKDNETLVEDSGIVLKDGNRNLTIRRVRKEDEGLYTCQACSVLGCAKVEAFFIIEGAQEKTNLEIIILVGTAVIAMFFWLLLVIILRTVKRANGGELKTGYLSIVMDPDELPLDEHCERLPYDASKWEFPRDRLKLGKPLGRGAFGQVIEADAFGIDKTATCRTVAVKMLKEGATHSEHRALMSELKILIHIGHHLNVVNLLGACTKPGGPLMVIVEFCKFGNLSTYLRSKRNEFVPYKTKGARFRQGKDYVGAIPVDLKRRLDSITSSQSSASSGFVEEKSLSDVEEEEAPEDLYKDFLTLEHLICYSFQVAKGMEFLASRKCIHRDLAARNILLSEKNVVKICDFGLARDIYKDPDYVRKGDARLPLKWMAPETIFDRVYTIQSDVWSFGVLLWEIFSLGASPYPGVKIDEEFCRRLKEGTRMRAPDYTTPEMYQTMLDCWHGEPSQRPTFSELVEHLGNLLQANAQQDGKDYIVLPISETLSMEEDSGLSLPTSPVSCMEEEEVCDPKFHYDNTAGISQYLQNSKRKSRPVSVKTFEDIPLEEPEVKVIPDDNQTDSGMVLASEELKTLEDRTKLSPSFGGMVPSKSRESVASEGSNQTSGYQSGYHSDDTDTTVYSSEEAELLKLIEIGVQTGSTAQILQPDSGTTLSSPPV
# T4 sequence (P35968 20-327 limits assumed): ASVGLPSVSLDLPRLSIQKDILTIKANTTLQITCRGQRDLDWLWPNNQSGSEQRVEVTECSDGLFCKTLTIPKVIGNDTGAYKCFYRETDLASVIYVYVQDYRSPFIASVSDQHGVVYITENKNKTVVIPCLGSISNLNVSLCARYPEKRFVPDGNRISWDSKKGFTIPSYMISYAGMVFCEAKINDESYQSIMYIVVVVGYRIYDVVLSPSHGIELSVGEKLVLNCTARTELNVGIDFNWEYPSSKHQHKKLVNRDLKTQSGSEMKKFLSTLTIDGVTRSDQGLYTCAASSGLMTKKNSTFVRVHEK
# T1 sequence (P17948 27-758 limits assumed, change not shown): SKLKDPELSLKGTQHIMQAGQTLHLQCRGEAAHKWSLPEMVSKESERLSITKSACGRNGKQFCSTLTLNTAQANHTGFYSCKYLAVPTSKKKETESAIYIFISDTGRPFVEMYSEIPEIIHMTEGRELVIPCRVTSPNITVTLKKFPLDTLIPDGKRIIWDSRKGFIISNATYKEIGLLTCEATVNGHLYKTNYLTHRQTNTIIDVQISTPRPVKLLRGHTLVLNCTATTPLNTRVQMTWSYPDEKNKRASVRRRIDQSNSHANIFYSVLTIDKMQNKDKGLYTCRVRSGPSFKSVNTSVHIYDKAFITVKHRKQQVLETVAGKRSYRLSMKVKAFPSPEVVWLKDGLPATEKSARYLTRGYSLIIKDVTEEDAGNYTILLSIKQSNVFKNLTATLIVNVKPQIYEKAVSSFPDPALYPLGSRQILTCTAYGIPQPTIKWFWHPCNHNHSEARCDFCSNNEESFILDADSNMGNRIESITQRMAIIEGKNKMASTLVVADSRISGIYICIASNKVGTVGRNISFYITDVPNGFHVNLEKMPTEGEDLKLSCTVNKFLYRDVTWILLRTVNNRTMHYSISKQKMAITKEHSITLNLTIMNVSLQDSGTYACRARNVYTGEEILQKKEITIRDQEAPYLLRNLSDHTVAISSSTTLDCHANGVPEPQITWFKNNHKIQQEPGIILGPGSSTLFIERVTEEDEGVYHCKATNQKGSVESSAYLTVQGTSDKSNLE
# T2 sequence (P17948 27-1338 limits assumed): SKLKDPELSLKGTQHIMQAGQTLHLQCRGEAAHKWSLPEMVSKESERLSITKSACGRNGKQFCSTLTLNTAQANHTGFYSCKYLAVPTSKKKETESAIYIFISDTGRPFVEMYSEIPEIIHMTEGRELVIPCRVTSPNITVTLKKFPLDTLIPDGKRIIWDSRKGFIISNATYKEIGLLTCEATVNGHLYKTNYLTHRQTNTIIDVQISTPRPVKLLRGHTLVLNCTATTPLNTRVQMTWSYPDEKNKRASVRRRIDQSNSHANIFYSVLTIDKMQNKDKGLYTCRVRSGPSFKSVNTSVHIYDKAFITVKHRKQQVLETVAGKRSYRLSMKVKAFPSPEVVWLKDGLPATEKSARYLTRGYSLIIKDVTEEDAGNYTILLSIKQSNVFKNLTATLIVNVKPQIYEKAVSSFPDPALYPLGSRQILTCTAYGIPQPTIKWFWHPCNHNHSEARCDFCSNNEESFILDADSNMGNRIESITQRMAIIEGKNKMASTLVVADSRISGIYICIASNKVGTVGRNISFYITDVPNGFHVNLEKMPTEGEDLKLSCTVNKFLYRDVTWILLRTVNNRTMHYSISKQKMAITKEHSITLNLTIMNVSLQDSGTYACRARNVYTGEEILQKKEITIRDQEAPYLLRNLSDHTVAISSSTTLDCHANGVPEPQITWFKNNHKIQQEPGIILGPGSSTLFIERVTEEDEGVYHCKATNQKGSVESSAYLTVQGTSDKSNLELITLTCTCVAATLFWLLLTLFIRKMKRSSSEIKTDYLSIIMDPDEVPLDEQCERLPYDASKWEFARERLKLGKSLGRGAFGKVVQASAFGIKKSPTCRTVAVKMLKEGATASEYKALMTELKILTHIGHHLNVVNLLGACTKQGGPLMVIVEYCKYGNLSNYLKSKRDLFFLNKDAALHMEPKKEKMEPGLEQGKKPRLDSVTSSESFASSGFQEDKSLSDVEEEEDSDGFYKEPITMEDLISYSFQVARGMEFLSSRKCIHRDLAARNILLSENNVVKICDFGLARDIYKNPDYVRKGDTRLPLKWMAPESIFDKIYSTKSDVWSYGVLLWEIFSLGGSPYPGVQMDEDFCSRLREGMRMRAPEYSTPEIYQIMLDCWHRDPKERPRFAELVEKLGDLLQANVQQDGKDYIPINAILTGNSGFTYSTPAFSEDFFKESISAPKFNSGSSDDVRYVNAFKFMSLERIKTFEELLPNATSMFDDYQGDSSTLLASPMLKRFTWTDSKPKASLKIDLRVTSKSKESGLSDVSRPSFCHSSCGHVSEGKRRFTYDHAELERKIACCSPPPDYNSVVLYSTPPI
# T5 sequence (P17948 27-331 limits assumed): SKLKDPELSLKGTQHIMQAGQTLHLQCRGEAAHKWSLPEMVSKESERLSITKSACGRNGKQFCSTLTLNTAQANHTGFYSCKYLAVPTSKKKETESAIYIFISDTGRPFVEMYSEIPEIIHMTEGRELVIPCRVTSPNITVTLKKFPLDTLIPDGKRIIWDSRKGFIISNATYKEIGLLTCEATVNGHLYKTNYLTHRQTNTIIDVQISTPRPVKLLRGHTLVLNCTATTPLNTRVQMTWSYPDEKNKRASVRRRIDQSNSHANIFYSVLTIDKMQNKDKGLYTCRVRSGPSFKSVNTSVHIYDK
# T3 sequence (P35968 20-1356 limits assumed): as the sequence (P35968 20-1356) above
# Chain of KDR receptor (soluble RIA of Examples 6 and 8) (P35968 20-764 limits assumed): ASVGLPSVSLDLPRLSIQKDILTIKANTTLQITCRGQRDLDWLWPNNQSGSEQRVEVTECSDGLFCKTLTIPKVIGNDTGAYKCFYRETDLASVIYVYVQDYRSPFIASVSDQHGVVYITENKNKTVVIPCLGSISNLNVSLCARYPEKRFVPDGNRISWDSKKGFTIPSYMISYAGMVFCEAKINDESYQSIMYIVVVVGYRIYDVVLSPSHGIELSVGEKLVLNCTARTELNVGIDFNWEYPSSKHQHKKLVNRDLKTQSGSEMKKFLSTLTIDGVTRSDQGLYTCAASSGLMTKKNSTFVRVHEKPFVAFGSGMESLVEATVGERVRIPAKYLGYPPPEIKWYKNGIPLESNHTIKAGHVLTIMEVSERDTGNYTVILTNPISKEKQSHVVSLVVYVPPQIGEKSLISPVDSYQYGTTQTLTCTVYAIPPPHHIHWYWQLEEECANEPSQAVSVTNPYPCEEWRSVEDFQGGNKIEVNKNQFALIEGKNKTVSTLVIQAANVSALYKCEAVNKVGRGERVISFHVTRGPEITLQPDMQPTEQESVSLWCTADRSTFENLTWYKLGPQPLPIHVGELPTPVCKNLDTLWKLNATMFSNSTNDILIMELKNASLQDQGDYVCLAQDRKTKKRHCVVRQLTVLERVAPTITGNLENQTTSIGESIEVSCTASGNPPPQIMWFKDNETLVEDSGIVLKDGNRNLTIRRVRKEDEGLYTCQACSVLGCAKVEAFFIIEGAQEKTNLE
Binder,IC50 [2] [nM],"Phosphorylation-Inducing Activity (KIRA), midpoint concentration [6] [nM]",Relative Binding Affinity (ratio to native VEGF (8-109)) [2] [fold],IC50 [7] [nM],Relative Binding Affinity (ratio to native VEGF (8-109)) [7] [fold],other results
"LK-VRB-2f (ligand, human, UniProt P15692-4 27-191, looked up, also called KDR-selective VEGF variant; KDR-sel) APMAEGGGQNHHEVVKFMDVYQRSYCHPIETLVDIFQEYPDEIEYIFKPSCVPLMRCGGCCNSEMRECVPTEESNITMQIMRIKPHQGQHIGEMSFLQHNKCECRPKKDRARQENPCGPCSERRKHLFVQDPQTCKCSCKNTDSRCKARQLELNERTCRCDKPRR",19,–,–,–,–,"Endothelial Cell Proliferation Activity (HUVEC, 3H-thymidine), concentration [1]: 0.05 nM"
"WT VEGF (ligand, human, UniProt P15692-4 27-191, looked up) VEGF monomer: APMAEGGGQNHHEVVKFMDVYQRSYCHPIETLVDIFQEYPDEIEYIFKPSCVPLMRCGGCCNDEGLECVPTEESNITMQIMRIKPHQGQHIGEMSFLQHNKCECRPKKDRARQENPCGPCSERRKHLFVQDPQTCKCSCKNTDSRCKARQLELNERTCRCDKPRR",–,–,–,–,–,IC50 (read off the curve) [3]: ~0.04 nM
"Flt-sel (I43A/I46A/Q79A/I83A, VEGF 1-109 form) (ligand, human, UniProt P15692-4 27-135, looked up, also called Flt-1-sel; Flt-1 selective variant) APMAEGGGQNHHEVVKFMDVYQRSYCHPIETLVDIFQEYPDEAEYAFKPSCVPLMRCGGCCNDEGLECVPTEESNITMAIMRAKPHQGQHIGEMSFLQHNKCECRPKKD",–,–,–,–,–,fold reduced KDR-binding affinity (against native VEGF) [4]: > 470 fold; binding result [5]: no binding (tested: log -6.7 M (about 2e-7 M)); binding result [3]: binds
"LK-VRB-2s* (ligand, human, UniProt P15692-4 27-135, looked up, also called KDR selective variant) APMAEGGGQNHHEVVKFMDVYQRSYCHPIETLVDIFQEYPDEIEYIFKPSCVPLMRCGGCCNSEMRECVPTEESNITMQIMRIKPHQGQHIGEMSFLQHNKCECRPKKD",–,2,–,–,–,"Endothelial Cell Proliferation Activity (HUVEC, 3H-thymidine), concentration [1]: 0.05 nM; IC50 (read off the curve) [5]: ~0.8 nM; IC50 (read off the curve) [3]: ~10 nM"
"LK-VRB-4s (ligand, human, UniProt P15692-4 27-135, looked up) APMAEGGGQNHHEVVKIEDVFERSICHPIETLVDIFQEYPDEIEYIFKPSCVPLMRCGGCCNDEGLECVPTEESNITMQIMRIKPHQGQHIGEMSFLQHNKCECRPKKD",100,1,200,1,1,"Phosphorylation-Inducing Activity (KIRA), ratio to native VEGF (8-109) [6]: 0.5 fold"
Pro 106 (ligand) APMAEGGGQNHHEVVKFMDVYQRSYCHPIETLVDIFQEYPDEIEYIFKPSCVPLMRCGGCCNDEGLECVPTEESNITMQIMRIKPHQGQHIGEMSFLQHNKCECRAKKD,–,–,–,–,–,fold reduction in binding (IC50 variant / IC50 VEGF(1-109)) [8]: 1 fold; fold reduction in binding (IC50 variant / IC50 VEGF(1-109)) [9]: 1 fold
"LK-VRB-9s (ligand, human, UniProt P15692-4 27-135, looked up) APMAEGGGQNHHEVVKFMDVYRRSYCHPIETLVDIFQEYPDEIEYIFKPSCVPLMRCGGCCNSEMRECVPTEESNITMQIMRIKPHQGQHIGEMSFLQHNKCECRPKKD",–,–,300,0.5,0.5,–
Tyr 25** (ligand) APMAEGGGQNHHEVVKFMDVYQRSACHPIETLVDIFQEYPDEIEYIFKPSCVPLMRCGGCCNDEGLECVPTEESNITMQIMRIKPHQGQHIGEMSFLQHNKCECRPKKD,–,–,–,–,–,fold reduction in binding (IC50 variant / IC50 VEGF(1-109)) [8]: 6 fold; fold reduction in binding (IC50 variant / IC50 VEGF(1-109)) [9]: 7 fold
"LK-VRB-5s (ligand, human, UniProt P15692-4 27-135, looked up) APMAEGGGQNHHEVVKFMDVYQRSYCHPIETLVDIFQEYPDEIEYIFKPSCVPLMRCGGCCNSEGRECVPTEESNITMQIMRIKPHQGQHIGEMSFLQHNKCECRPKKD",233,1,550,1,1,"Phosphorylation-Inducing Activity (KIRA), ratio to native VEGF (8-109) [6]: 0.5 fold"
"LK-VRB-3s (ligand, human, UniProt P15692-4 27-135, looked up) APMAEGGGQNHHEVVKIEDVFKRSSCHPIETLVDIFQEYPDEIEYIFKPSCVPLMRCGGCCNDEGLECVPTEESNITMQIMRIKPHQGQHIGEMSFLQHNKCECRPKKD",170,2,400,1,1,"Phosphorylation-Inducing Activity (KIRA), ratio to native VEGF (8-109) [6]: 1 fold"
"LK-VRB-7s* (ligand, human, UniProt P15692-4 27-135, looked up) APMAEGGGQNHHEVVKFEDVYQRSYCHPIETLVDIFQEYPDEIEYIFKPSCVPLMRCGGCCNSEMRECVPTEESNITMQIMRIKPHQGQHIGEMSFLQHNKCECRPKKD",–,–,–,1,1,"Endothelial Cell Proliferation Activity (HUVEC), ratio to native VEGF (8-109) [1]: 1 fold; Endothelial Cell Proliferation Activity (HUVEC, 3H-thymidine), concentration [1]: 0.5 nM"
LK-VRB-8s* (ligand) APMAEGGGQNHHEVVKFMDVLQRSYCHPIETLVDIFQEYPDEIEYIFKPSCVPLMRCGGCCNSEMRECVPTEESNITMQIMRIKPHQGQHIGEMSFLQHNKCECRPKKD,–,–,–,0.5,0.5,"Endothelial Cell Proliferation Activity (HUVEC), ratio to native VEGF (8-109) [1]: 1 fold; Endothelial Cell Proliferation Activity (HUVEC, 3H-thymidine), concentration [1]: 0.5 nM"
"LK-VRB-6s (ligand, human, UniProt P15692-4 27-135, looked up) APMAEGGGQNHHEVVKFMDVYQRSYCHPIETLVDIFQEYPDEIEYIFKPSCVPLMRCGGCCNSEATECVPTEESNITMQIMRIKPHQGQHIGEMSFLQHNKCECRPKKD",4,1,10,0.5,0.5,"Phosphorylation-Inducing Activity (KIRA), ratio to native VEGF (8-109) [6]: 0.5 fold"
Tyr 21** (ligand) APMAEGGGQNHHEVVKFMDVAQRSYCHPIETLVDIFQEYPDEIEYIFKPSCVPLMRCGGCCNDEGLECVPTEESNITMQIMRIKPHQGQHIGEMSFLQHNKCECRPKKD,–,–,–,–,–,fold reduction in binding (IC50 variant / IC50 VEGF(1-109)) [8]: 19 fold; fold reduction in binding (IC50 variant / IC50 VEGF(1-109)) [9]: 29 fold
